Results as given in patent US20250339569A1 (3B PHARMACEUTICALS, published 2025).
Starred links: 1 amine or outer side, 2 acyl side, 3 side chain; linkers in the order of their positions; H or OH if unused. Positions of bridges follow the written chain, without caps; N, C: chain ends. Non-standard residues stand in square brackets, D forms with d. Primed or numbered codes have the meaning given here. *: point of attachment. Aph(SaPr)(5) = 4-amino-L-phenylalanine acylated on the ring amine with 3-sulfamoylpropanoic acid, NS(=O)(=O)CCC(=O)Nc1ccc(C[C@H](N[*:1])C(=O)[*:2])cc1; Aph(SaPr)(3) = 4-amino-L-phenylalanine with ring amino acylated by 3-sulfamoylpropanoic acid, NS(=O)(=O)CCC(=O)Nc1ccc(C[C@H](N[*:1])C(=O)[*:2])cc1; Ttds(4) = 1,13-diamino-4,7,10-trioxatridecan-succinamic acid spacer, O=C(CCC(=O)[*:2])NCCCOCCOCCOCCCN[*:1]; 111In‑DOTA = O=C([O-])CN1CCN(CC(=O)[O-])CCN(CC(=O)*)CCN(CC(=O)[O-])CC1.[111In+3]; Phe(3-NHCO(CH2)3SO2NH2) = N[C@@H](Cc1cccc(NC(=O)CCCS(N)(=O)=O)c1)C(=O)O; APAc″ = 2-(4-(amino)piperidin-1-yl)acetic acid, NC1CCN(CC(=O)*)CC1; DOTA = O=C(O)CN1CCN(CC(=O)O)CCN(CC(=O)*)CCN(CC(=O)O)CC1; Biotin = O=C1N[C@H]2[C@H](CS[C@H]2CCCCC(=O)*)N1; PPAc = 4-carboxymethyl piperazine linker; mXylylene = c1cc(C[*:1])cc(C[*:2])c1; Cy5SO3 = Cy5 dye with one sulfonate; Dap = NC[C@H](N)C(=O)O; Sni = not defined here

Assays:
[1] = target: T1, human carbonic anhydrase 9 (CAIX) (human, UniProt Q16790 38-459); experiment: FACS binding assay on CAIX-expressing HT-29 cells, biotinylated compound detected with APC-streptavidin; pEC50 category (B = pEC50 between 7.1 and 8.0)
Experimental: (§1) CAIX-expressing human HT-29 colorectal cancer cells (DSMZ, RRID: CVCL_0320) were cultured in McCoys's 5A modified medium (Biochrom, #F1015) including 10% fetal calf serum (FCS), 2 mM L-glutamine, 100 U/ml penicillin and 100 μg/mL streptomycin. Cells were detached with Accutase (Biolegend, #423201) and washed in FACS buffer (PBS including 1% FCS). Cells were diluted in FACS buffer to a final concentration of 500.000 cells per ml. 200 μL of the cell suspension were transferred to a u-shaped non-binding 96-well plate (Greiner) and cells were washed in ice-cold FACS buffer.
(§2) When biotinylated compounds were used an additional incubation step with 1 μg/mL APC-Streptavidin (Miltenyi; #130-106-791) in 50 μL FACS buffer for 30 minutes on ice was performed.
(§3) Cells were washed twice with ice-cold FACS buffer and analyzed in an Attune NxT flow cytometer (Thermo Fisher). Median fluorescence intensities (MFI) of the APC/Cy5-channel were calculated by Attune NxT software.

[2] = target: T2, murine carbonic anhydrase 9 (CAIX) (mouse, UniProt Q8VHB5 32-437); experiment: radioligand binding, 111In-labeled compound, CHO cells with mouse CAIX; pKD category B: 7.1-8.0
T2 construct: On transfected CHO-VGT cells; also called mouse CAIX

[3] = target: T3, canine carbonic anhydrase 9 (CAIX) (dog); experiment: radioligand binding, 111In-labeled compound, CHO cells with dog CAIX; pKD category A: >8.0
T3 construct: On transfected CHO-VGT cells; also called dog CAIX
T3 sequence (chain, as listed by the source limits assumed): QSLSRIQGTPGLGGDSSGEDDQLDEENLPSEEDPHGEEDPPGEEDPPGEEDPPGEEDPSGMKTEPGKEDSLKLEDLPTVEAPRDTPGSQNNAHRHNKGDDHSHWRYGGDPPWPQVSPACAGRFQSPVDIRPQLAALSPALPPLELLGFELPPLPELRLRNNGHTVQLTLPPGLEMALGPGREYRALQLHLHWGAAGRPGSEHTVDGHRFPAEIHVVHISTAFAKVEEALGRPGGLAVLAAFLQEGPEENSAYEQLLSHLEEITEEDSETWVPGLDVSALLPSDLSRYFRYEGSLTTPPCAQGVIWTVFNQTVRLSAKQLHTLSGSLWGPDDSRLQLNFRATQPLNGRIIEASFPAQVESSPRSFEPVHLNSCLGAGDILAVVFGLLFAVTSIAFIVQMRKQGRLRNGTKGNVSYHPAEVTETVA
Experimental: (§4) CHO-VGT cells were transfected with the human, dog, and mouse CAIX (InSCREENex GmbH) and cultured in Ham's F-12 medium (Sigma-Aldrich #N4888) supplemented with 10% fetal bovine serum (FCS), 2 mM L-glutamine, 100 U/mL Penicillin, and 0.1 mg/mL streptomycin. […] Cell concentrations were adjusted to 3×10⁵ mL⁻¹, and 1.000 μL of the suspension per well were dispensed into flat-clear-bottom 24 well plates.
(§5) Approximately 24 hours after re-seeding, the medium was aspirated and the cells were washed once with 1000 μL assay medium (Ham's medium without additives). To determine total binding, 700 μL of assay medium and 100 μL of the radioligand dilutions were added to the wells in triplicates. To determine non-specific binding, 600 μL of binding medium, 100 μL of the radioligand dilutions and 100 μL of a blocking solution containing 8 μM non-labeled compound were added to the wells in triplicates. […] An aliquot of each radioligand dilution was included in the gamma counter measurements to allow for determination of their actual concentrations via their known specific activity.

[4] = target: T4, human carbonic anhydrase IX (CAIX) (human, UniProt Q16790 38-459); experiment: radioligand binding, 111In-labeled compound, CHO cells with human CAIX; pKD category A: >8.0
Experimental: as §4, §5

[5] = target: T2, murine carbonic anhydrase 9 (CAIX); experiment: radioligand binding, 111In-labeled compound, CHO cells with mouse CAIX; pKD category C: 6.1-7.0
[6] = target: T5, canine carbonic anhydrase 9 (CAIX) (dog); experiment: radioligand saturation binding on CHO-dgCAIX cells, 8 h at 37 °C, experiment ii
T5 construct: Expressed on transfected CHO cells (CHO-dogCA9); also called dgCAIX; dog CAIX
T5 sequence (chain, as listed by the source limits assumed): as above
Experimental: (§6) The radioligand saturation binding on CHO-huCAIX and dgCAIX was determined as follows. […] To determine total binding, 700 μL of binding medium and 100 μL of the radioligand dilutions were added to the wells in triplicates. […] The plates were incubated for 8 h at 37° C. under standard cell culture conditions (5% CO2). At the end of the incubation time the plates were placed on ice while aspirating the radioligand solutions. Aliquots of the 20 nM supernatants were transferred to HPLC vials for analysis of radioligand stability over the incubation time. Subsequently, the cells were washed with ice-cold PBS (0.5 mL, 1 mL, 1 mL). 300 μL of RIPA buffer containing PIC was added to each well and the plates were placed on a shaker for 10 min at ambient temperature. 200 μL of the cell lysate of each well was transferred to gamma-counting tubes. Their associated radioactivity was counted using a gamma counter and normalized to the measured protein concentration of each well (see chapter 6.3.7 BCA protein assay). An aliquot of each radioligand dilution was included in the gamma counter measurements to allow for determination of the actual radioligand concentrations in the dilution series.

[7] = target: T5, canine carbonic anhydrase 9 (CAIX); experiment: radioligand saturation binding on CHO-dgCAIX cells, 8 h at 37 °C, experiment iii
Experimental: as §6

[8] = target: T1, human carbonic anhydrase 9 (CAIX); experiment: FACS binding assay on CAIX-expressing HT-29 cells, Cy5-labeled compound; pEC50 category (A = pEC50 >8.0)
Experimental: as §1, §2, §3

[9] = target: T2, murine carbonic anhydrase 9 (CAIX); experiment: radioligand binding, 111In-labeled compound, CHO cells with mouse CAIX; pKD category A: >8.0
Experimental: as §4, §5

[10] = target: T6, Fc-fusion protein of human carbonic anhydrase IX (human, UniProt Q16790 38-414); experiment: SPR, captured hCAIX-Fc; pKD category A: >8.0
[11] = target: T4, human carbonic anhydrase IX (CAIX); experiment: FACS competition, HT-29 cells, tracer printed 3BP-414 (probably 3BP-4149); pIC50 category B: 7.1-8.0
Experimental: as §1, §2, §3

[12] = target: T6, Fc-fusion protein of human carbonic …; experiment: SPR, captured hCAIX-Fc; t1/2 category A: >15.0 min

T2 sequence (Q8VHB5 32-437 limits assumed): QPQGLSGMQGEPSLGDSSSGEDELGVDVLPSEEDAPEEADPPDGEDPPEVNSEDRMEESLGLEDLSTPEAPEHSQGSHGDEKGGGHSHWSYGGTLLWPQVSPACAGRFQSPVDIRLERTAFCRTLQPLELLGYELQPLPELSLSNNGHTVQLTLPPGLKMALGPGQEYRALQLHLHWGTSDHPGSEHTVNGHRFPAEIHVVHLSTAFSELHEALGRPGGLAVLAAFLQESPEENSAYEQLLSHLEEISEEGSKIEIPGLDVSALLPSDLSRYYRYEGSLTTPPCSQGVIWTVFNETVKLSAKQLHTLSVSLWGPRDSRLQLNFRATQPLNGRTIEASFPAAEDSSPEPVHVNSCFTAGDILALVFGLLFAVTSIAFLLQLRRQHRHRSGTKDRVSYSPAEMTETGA

B1: 3BP-2775: H-Met-Gln-[Cys(3MeBn)-Glu-Ile-Trp-Val-Asp-Gly-Trp-Val-Thr-Cys]-Ttds-Lys(Bio)-NH2 (peptide)
peptide: H-MQCEIWVDGWVTC[Ttds(4)]K(Biotin)-NH2
modifications: linker 3-13 via mXylylene
SMILES: CC[C@H](C)[C@@H]1NC(=O)[C@H](CCC(=O)O)NC(=O)[C@@H](NC(=O)[C@H](CCC(N)=O)NC(=O)[C@@H](N)CCSC)CSCc2cccc(c2)CSC[C@@H](C(=O)NCCCOCCOCCOCCCNC(=O)CCC(=O)N[C@@H](CCCCNC(=O)CCCC[C@@H]2SC[C@@H]3NC(=O)N[C@@H]32)C(N)=O)NC(=O)[C@H]([C@@H](C)O)NC(=O)[C@H](C(C)C)NC(=O)[C@H](Cc2c[nH]c3ccccc23)NC(=O)CNC(=O)[C@H](CC(=O)O)NC(=O)[C@H](C(C)C)NC(=O)[C@H](Cc2c[nH]c3ccccc23)NC1=O
notes: Cyclic peptide, biotinylated
Q: With B1 as the binder, how does the pEC50 [1] read?
A: 7.1 to 8 pec50

Q: What does the source list for {111In‑DOTA}-QCE[dP]D[Aph(SaPr)(5)]LTWSC-NH2 (linker 2-11 via mXylylene, also called [111In]In-DPI-4501) [111In-3BP-4501]?
A: pKD [2]: 7.1 to 8 pkd; pKD [3]: > 8 pkd

Q: For {111In‑DOTA-APAc″}-VYCE[dP]DWLTWSC-NH2 (linker 3-12 via mXylylene, also called 3BP-3583 (111In-labeled)) [111In-3BP-3583], which pKD [4] is on record?
A: > 8 pkd

Q: What about the pKD [5] of the same binder?
A: 6.1 to 7 pkd

Q: What about the pKD [3] of the same binder?
A: > 8 pkd

B2: [^111In]In-DPI-4452 (peptide)
peptide: {DOTA-PPAc}-QCE[dP]D[Phe(3-NHCO(CH2)3SO2NH2)]LTWSC-NH2
modifications: linker 2-11 via mXylylene; also: 111In complexed in DOTA
notes: Cyclic peptide with chelator DOTA complexing In-111; X stands for the non-natural residue Af3(Cpsu); also called ^111In-DOTA-PPAc-Q-[C(3MeBn)-EPD-Af3(Cpsu)-LTWSC]-NH2; ^111In-3BP-4452
Q: For B2, which pKd [6] is on record?
A: 9.5 -log10(M)

B3: [^111In]In-DPI-4501 (peptide)
peptide: {DOTA}-QCE[dP]D[Aph(SaPr)(3)]LTWSC-NH2
modifications: linker 2-11 via mXylylene; also: 111In complexed by DOTA
notes: Cyclic peptide with chelator DOTA complexing In-111; X stands for the non-natural residue Aph(SaPr); also called ^111In-DOTA-Q-[C(3MeBn)-EPD-Aph(SaPr)-LTWSC]-NH2; ^111In-3BP-4501
Q: Which pKd [7] does the source give for B3 here?
A: 9.6 -log10(M)

Q: How did the pEC50 [8] turn out when {Cy5SO3-APAc″}-VYCE[dP]DWLTWSC-NH2 (linker 3-12 via mXylylene, Cyclic peptide with a fluorophore) [3BP-4149: Cy5SO3-APAc-Val-Tyr-[Cys(3MeBn)-Glu-pro-Asp-Trp-Leu-Thr-Trp-Ser-Cys]-NH2] was run?
A: > 8 pec50

Q: {111In‑DOTA}-ECE[dP]D[Phe(3-NHCO(CH2)3SO2NH2)]LTW[Dap]C-NH2 (lactam 1-10; linker 2-11 via mXylylene, also called 3BP-4503 (111In-labeled)) [111In-3BP-4503] was tested. Which pKD [4] did it give?
A: > 8 pkd

Q: And the pKD [9]?
A: > 8 pkd

Q: What about the pKD [3] of the same binder?
A: > 8 pkd

Q: For {DOTA-Sni}-YCE[dP]D[Phe(3-NHCO(CH2)3SO2NH2)]LTWSC-NH2 (linker 2-11 via mXylylene; reading uncertain) [3BP-4454], which pKD [10] is on record?
A: > 8 pkd

Q: What about the pIC50 [11] of the same binder?
A: 7.1 to 8 pic50

Q: And the “t1/2 (half-life of the complex, SPR)” value [12]?
A: > 15 min
